Measured values taken from patent US20240385190A1 (EISAI R AND D MANAGEMENT, published 2024).
Numbering of substitutions follows the chain as printed. Several values for one entry are separate records, joined by “and”; a condition that tells them apart may be missing. Equal values may be shown once.

B1: KPEP11_04 (antibody, V domains shown)
VH: QEQLKESGGRLVTPGGSLTLTCTVSGIDLSSYAMSWVRQAPEKGLEWIGFINMYGTYYASWAKGRFTISRTSTTVDLKVTSLTTEDTATYFCVRGGRSPDYDIVSGDIWGPGTLVTVSS
VL: YVMMTQTPSSVSEPVGGTVTIKCQASQNIYNSLAWYQQKPGQRPKLLIADASELASGVPQRFSGSGSGTQFTLTISDLECADAATYYCQSSSAGDSYVGGFGGGTEVVVKG
notes: Rabbit IgG/kappa; Used HRP-labeled as detection antibody in the sandwich ELISAs; also called anti-human EphA4 rabbit monoclonal antibody KPEP11_04; HRP-labeled KPEP11_04
B2: KPEP11_08 (antibody)
heavy: QSLEESGGRLVTPGTPLTLTCTVSGFSLSSYHMSWVRQAPGKGLEWIGIIYRSGNTYYANWAKGRFTISKTSTTVDLKITSPTTEDTATYFCARESSTFYGMDLWGPGTLVTVSSGAPKAPSVFPLAPCCGDTPSSTVTLGCLVKGYLPEPVTVTWNSGTLTNGVRTFPSVRQSSGLYSLSSVVSVTSSSQPVTCNVAHPATNTKVDKTVAPSTCSKPTCPPPELLGGPSVFIFPPKPKDTLMISRTPEVTCVVVDVSQDDPEVQFTWYINNEQVRTARPPLREQQFNSTIRVVSTLPITHQDWLRGKEFKCKVHNKALPAPIEKTISKARGQPLEPKVYTMGPPREELSSRSVSLTCMINGFYPSDISVEWEKNGKAEDNYKTTPAVLDSDGSYFLYNKLSVPTSEWQRGDVFTCSVMHEALHNHYTQKSISRSPGK
light: DPVLTQTASSVSAAVGGTVTINCQASQSVYGNNELAWYQQKPGQPPKLLIYTASSLASGVPSRFKGSGSGTEFTLTISDLECADAATYYCLGYKSDDYTFGGGTEVVVKGAPVAPTVLIFPPAADQVATGTVTIVCVANKYFPDVTVTWEVDGTTQTTGIENSKTPQNSADCTYNLSSTLTLTSTQYNSHKEYTCKVTQGTTSVVQSFNRGDC
notes: Rabbit IgG/kappa; Used HRP-labeled as detection antibody in the sandwich ELISAs; also called anti-human EphA4 rabbit monoclonal antibody KPEP11_08; HRP-labeled KPEP11_08
B3: KPEP11_10 (antibody)
heavy: B2 heavy
light: B2 light with D1A, P2I, V3K, L4M, A8P
notes: Rabbit IgG/kappa; Used coated or HRP-labeled in the sandwich ELISAs; also called anti-human EphA4 rabbit monoclonal antibody KPEP11_10; HRP-labeled KPEP11_10
B4: KPEP11_18 (antibody, V domains shown)
VH: QSLEESGGRLVTPGTPLTLTCTISGFSLSSFYINWVRQAPGRGLEWIGIIYPDIDATDYASWVKGRFTISKTSTTVDLKITSPTTEDTATYFCARSDVDYYTTRLDLWGQGTLVTVSS
VL: DPMMTQTASPVSAAVGGTVSISCQSNKSVYSNWLSWFQQKPGQPPKLLIYGASTLASGVPSRFKGSGSGTQFTLTVSDVQCDDAATYFCLGGYRDNSDNAFGGGTEVVVKG
notes: Rabbit IgG/kappa; Used coated or HRP-labeled in the sandwich ELISAs; also called anti-human EphA4 rabbit monoclonal antibody KPEP11_18; HRP-labeled KPEP11_18

Biological target: T1, human EphA4 extracellular domain-MBP-His protein (human)
T1 construct: also called human EphA4 extracellular domain (ECD); Human EphA4 extracellular domain-MBP-His 10
Assay: ELISA
Procedure: (§1) For the anti-human EphA4 monoclonal antibodies produced in Example 1, evaluation of binding activity to various EphA4 was performed according to the following steps. Mouse anti-6-His antibodies (R&D) were coated on the wells of a 96-well plate (Thermo […]). After incubating at room temperature for 1 hour, the wells were blocked at room temperature for 1 hour with 1% Block Ace (KAC). After washing three times with 0.02% Tween 20/PBS, the wells were seeded with human EphA4 extracellular domain-MBP-His protein, human EphA4 ligand binding domain-MBP-His protein, human EphA4 fibronectin III-type domain 1-MBP-His protein, human EphA4 fibronectin III-type domain 2-MBP-His protein, or MBP-His protein (final concentration 1 nM), and this was incubated at room temperature for 1 hour. After washing three times, anti-human EphA4 rabbit monoclonal antibody (10 pg/mL) was added, and this was incubated at room temperature for 1 hour. After washing three times, horseradish peroxidase labeled goat anti-rabbit IgG polyclonal antibody (abcam) was added, and this was incubated at room temperature for 1 hour. After washing three times, TMBZ (3,3′,5,5′-tetramethylbenzidine, KPL) solution was added to the wells, and this was incubated for four and a half minutes at room temperature. Equal amounts of quenching solution (2 N H₂SO₄, FUJIFILM Wako) were added to the wells, and absorbance at 450 nm and 650 nm were read with a microplate reader (Thermo […]).

Binder | absorbance
B1 | 1.41
B2 | 1.31
B3 | 1.35
B4 | 1.42

Biological target: FN1
Assay: ELISA
Procedure: as §1

Binder | absorbance
B1 | 0.225
B2 | 0.283
B3 | 0.329
B4 | 0.222

Biological target: human EphA4 ligand binding domain-MBP-His protein (human, UniProt P54764 20-209; P0AEX9 29-392 = MBP)
Assay: ELISA
Procedure: as §1

Binder | absorbance
B1 | 1.33
B2 | 0.292
B3 | 0.34
B4 | 1.43

Biological target: FN2
Assay: ELISA
Procedure: as §1

Binder | absorbance
B1 | 0.227
B2 | 0.265
B3 | 0.325

Biological target: MBP
Assay: ELISA
Procedure: as §1

Binder | absorbance
B1 | 0.267
B2 | 0.3
B3 | 0.334

Biological target: T1, human EphA4 extracellular …
Assay: SPR Biacore T200, EphA4 ECD-MBP-His captured by anti-His antibody, antibody as analyte, 1:1 model, mean of three (exponent printed as -90, read as -09); mean of three experiments
Procedure: (§2) The binding affinity of KPEP11_04, KPEP11_08, KPEP11_10, and KPEP11_18 against human EphA4 was determined by the surface plasmon resonance method (SPR method) employing Biacore T200 (Cytiva). First, an anti-His antibody (Cytiva, 28-9950-56) was diluted to 10 μg/mL with the immobilizing buffer (10 mM sodium acetate, pH 4.5), and immobilized onto a sensor chip CM5 according to the protocol attached to Biacore T200. Immobilization was performed by the amine coupling method employing N-hydroxysuccinimide (NHS) and N-ethyl-N′-(3-dimethylaminopropyl) carbodiimide hydrochloride salt (EDC), and ethanolamine was employed for blocking (sensor chips or immobilizing reagents were all from Cytiva). Human EphA4 extracellular domain-MBP-His 10 was diluted with a running buffer HBS-EP+ (Cytiva), and pumped onto a flow cell for 120 seconds to allow capturing (captured amount of about 3 RU). […] At the end of each observation, 10 mM glycine hydrochloric acid pH 1.5 (60 seconds) and 3 M MgCl₂ (30 seconds) were added to regenerate the sensor chips. Fitting analysis by the 1:1 binding model employing the BIA evaluation software attached to the system was performed against the binding reaction curves obtained to calculate the binding affinity against human EphA4 (KD=kd/ka). The experiment described above was carried out three times, and the mean was calculated for each parameter.

Binder | Kd
B1 | 1.9 nM

Biological target: T2, SEAP
T2 construct: negative control antigen; also called SEAP-His protein
Assay: ELISA
Procedure: (§3) For the anti-human EphA4 monoclonal antibodies produced in Example 1, evaluation of binding activity to various EphA4 was performed according to the following steps. Mouse anti-6-His antibodies (R&D) were coated on the wells of a 96-well plate (Thermo […]). After incubating at room temperature for 1 hour, the wells were blocked at 4° C. overnight with 1% Block Ace (KAC). After washing three times with 0.02% Tween 20/PBS, the wells were seeded with mouse EphA4 extracellular domain-SEAP-His protein, rat EphA4 extracellular domain-SEAP-His protein, rabbit EphA4 extracellular domain-SEAP-His protein, monkey EphA4 extracellular domain-SEAP-His protein, human EphA4 extracellular domain-SEAP-His protein, or SEAP-His protein (final concentration 1 nM), and this was incubated at room temperature for 1 hour. After washing three times, anti-human EphA4 rabbit monoclonal antibody (10 pg/mL) was added, and this was incubated at room temperature for about 1 hour. After washing three times, horseradish peroxidase labeled goat anti-rabbit IgG polyclonal antibody (abcam) was added, and this was incubated at room temperature for 1 hour. After washing three times, TMBZ (3,3′,5,5′-tetramethylbenzidine, KPL) solution was added to the wells, and this was incubated for 3 minutes at room temperature. Equal amounts of quenching solution (2 N H₂SO₄, FUJIFILM Wako) were added to the wells, and absorbance at 450 nm and 650 nm were read with a microplate reader (Thermo […]).

Binder | absorbance
B1 | 0.05
B2 | 0.072
B3 | 0.087
B4 | 0.054

Biological target: T3, Mouse
T3 construct: also called mouse EphA4 extracellular domain-SEAP-His protein
Assay: ELISA
Procedure: as §3

Binder | absorbance
B1 | 0.044
B2 | 0.071

Biological target: T4, monkey EphA4 extracellular domain-SEAP-His protein (monkey)
T4 construct: the fusion as a whole has none; not shown: SEAP-His part
T4 sequence (chain, as listed by the source): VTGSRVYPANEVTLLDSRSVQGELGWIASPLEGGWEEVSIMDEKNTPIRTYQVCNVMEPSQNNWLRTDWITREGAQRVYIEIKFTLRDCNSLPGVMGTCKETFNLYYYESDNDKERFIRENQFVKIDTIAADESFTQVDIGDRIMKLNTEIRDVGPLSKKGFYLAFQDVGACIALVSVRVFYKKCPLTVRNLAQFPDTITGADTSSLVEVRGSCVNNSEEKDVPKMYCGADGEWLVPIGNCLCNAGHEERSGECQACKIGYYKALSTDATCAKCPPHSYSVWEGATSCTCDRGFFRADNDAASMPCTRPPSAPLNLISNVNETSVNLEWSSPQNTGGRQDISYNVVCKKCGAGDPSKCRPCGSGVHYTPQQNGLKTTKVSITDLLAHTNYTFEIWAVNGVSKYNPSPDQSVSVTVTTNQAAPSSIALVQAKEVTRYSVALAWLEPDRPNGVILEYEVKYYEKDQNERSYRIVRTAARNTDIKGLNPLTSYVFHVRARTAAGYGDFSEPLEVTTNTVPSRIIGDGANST
Assay: ELISA
Procedure: as §3

Binder | absorbance
B1 | 1.21
B3 | 1.11
B4 | 1.18

Biological target: T5, human EphA4 extracellular domain-SEAP-His protein (human)
T5 sequence (chain, as listed by the source limits assumed): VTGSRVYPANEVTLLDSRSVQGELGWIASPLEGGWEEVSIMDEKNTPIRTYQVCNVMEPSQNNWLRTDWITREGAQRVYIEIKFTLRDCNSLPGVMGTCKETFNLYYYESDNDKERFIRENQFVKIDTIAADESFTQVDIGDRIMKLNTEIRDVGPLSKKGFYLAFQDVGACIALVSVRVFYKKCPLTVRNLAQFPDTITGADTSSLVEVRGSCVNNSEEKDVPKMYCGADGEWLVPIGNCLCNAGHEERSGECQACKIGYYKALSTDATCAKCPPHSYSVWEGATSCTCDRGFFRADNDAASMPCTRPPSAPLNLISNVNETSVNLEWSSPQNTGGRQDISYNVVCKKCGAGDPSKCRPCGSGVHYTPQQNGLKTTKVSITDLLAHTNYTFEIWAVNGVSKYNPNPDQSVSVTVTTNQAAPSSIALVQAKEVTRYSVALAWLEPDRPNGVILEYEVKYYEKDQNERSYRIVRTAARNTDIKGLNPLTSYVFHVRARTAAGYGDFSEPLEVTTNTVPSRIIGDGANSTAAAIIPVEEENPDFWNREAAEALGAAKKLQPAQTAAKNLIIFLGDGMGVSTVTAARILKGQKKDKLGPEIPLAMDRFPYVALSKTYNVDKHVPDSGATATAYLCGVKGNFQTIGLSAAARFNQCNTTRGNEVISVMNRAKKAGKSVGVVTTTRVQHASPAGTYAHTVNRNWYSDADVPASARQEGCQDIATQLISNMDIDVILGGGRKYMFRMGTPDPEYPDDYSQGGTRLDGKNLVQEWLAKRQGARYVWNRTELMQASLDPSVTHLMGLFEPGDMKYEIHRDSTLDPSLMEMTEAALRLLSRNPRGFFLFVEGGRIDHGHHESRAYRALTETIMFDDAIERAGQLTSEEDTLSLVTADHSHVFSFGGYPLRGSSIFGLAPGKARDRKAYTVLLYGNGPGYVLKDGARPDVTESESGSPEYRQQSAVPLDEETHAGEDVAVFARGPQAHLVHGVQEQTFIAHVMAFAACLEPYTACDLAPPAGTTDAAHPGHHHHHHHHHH
Assay: ELISA
Procedure: as §3

Binder | absorbance
B1 | 1.26
B2 | 1.15
B3 | 1.17
B4 | 1.23

Biological target: T6, Rabbit
T6 construct: also called rabbit EphA4 extracellular domain-SEAP-His protein
Assay: ELISA
Procedure: as §3

Binder | absorbance
B1 | 0.039
B2 | 0.057
B3 | 0.091
B4 | 0.059

Biological target: T7, Rat
T7 construct: also called rat EphA4 extracellular domain-SEAP-His protein
Assay: ELISA
Procedure: as §3

Binder | absorbance
B1 | 0.044
B2 | 0.065
B3 | 0.087
B4 | 0.067

Biological target: T1, human EphA4 extracellular …
Assay: SPR Biacore T200, EphA4 ECD-MBP-His captured by anti-His antibody, antibody as analyte, 1:1 model, mean of three
Procedure: as §2

Binder | koff | kon | Kd
B1 | 0.00389 s⁻¹ | 2.06e+06 M⁻¹ s⁻¹ | 
B2 | 0.00217 s⁻¹ | 1.44e+06 M⁻¹ s⁻¹ | 1.51 nM
B3 | 0.00196 s⁻¹ | 1.52e+06 M⁻¹ s⁻¹ | 1.3 nM
B4 | 0.00127 s⁻¹ |  | 0.389 nM

Biological target: T4, monkey EphA4 extracellular …
Assay: ELISA
Remark: another data set of the same source

Binder | EC50 (read off the curve)
B1 | ~10 pM
B2 | ~20 pM
B3 | ~20 pM
B4 | ~10 pM

Biological target: T5, human EphA4 extracellular …
Assay: ELISA
Remark: another data set of the same source

Binder | EC50 (read off the curve)
B1 | ~10 pM
B2 | ~20 pM
B3 | ~20 pM
B4 | ~10 pM

Biological target: T1, human EphA4 extracellular …
Assay: SPR Biacore T200, EphA4 ECD-MBP-His captured by anti-His antibody, antibody as analyte, 1:1 model
Procedure: as §2

Binder | Kd | koff | kon
B1 | 1.72 nM and 2.12 nM and 1.87 nM | 0.004 s⁻¹ and 0.00378 s⁻¹ and 0.00389 s⁻¹ | 2.33e+06 M⁻¹ s⁻¹ and 1.78e+06 M⁻¹ s⁻¹ and 2.08e+06 M⁻¹ s⁻¹
B2 | 1.51 nM and 1.67 nM and 1.36 nM | 0.00214 s⁻¹ | 1.42e+06 M⁻¹ s⁻¹ and 1.24e+06 M⁻¹ s⁻¹ and 1.58e+06 M⁻¹ s⁻¹
B3 | 1.36 nM and 1.23 nM | 0.00196 s⁻¹ and 0.00198 s⁻¹ | 1.44e+06 M⁻¹ s⁻¹ and 1.58e+06 M⁻¹ s⁻¹
B4 | 0.416 nM and 0.382 nM | 0.00128 s⁻¹ and 0.00137 s⁻¹ and 0.00127 s⁻¹ | 3.06e+06 M⁻¹ s⁻¹ and 3.32e+06 M⁻¹ s⁻¹ and 3.44e+06 M⁻¹ s⁻¹
